Experimental data published in PMC9401124.

Target: EsxT (M. abscessus), co-expressed with EsxU in M. smegmatis (Mycobacterium abscessus ATCC 19977)
Test: SEC-MALS; purified EsxU/EsxT complex injected at 10 mg/mL on S200 5/150, 0.8 mL/min, 20 mM Tris pH 8.0, 300 mM NaCl, 5% glycerol

EsxU (M. abscessus), co-expressed with EsxT in M. smegmatis (natural protein)
stoichiometry N: 1
